Experimental data: patent US20180127500A1 (ANAPTYSBIO, published 2018)

T1: Cyno TIM-3 (cynomolgus monkey, UniProt A0A2K5U3G7 22-294)
T1 construct: The construct used for BIACORE is not described; also called cynomolgus monkey TIM-3
T1 sequence: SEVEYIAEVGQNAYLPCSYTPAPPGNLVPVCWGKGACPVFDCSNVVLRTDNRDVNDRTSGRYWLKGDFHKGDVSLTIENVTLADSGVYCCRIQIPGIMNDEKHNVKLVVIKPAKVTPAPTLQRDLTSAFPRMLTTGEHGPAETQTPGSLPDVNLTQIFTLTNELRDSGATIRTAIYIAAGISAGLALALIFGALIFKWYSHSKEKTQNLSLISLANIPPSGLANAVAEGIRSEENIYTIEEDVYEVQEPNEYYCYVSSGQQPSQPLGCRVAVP

T2: Human TIM-3 (human, UniProt Q8TDQ0 22-200, limits assumed)
T2 construct: The construct used for BIACORE is not described; also called T Cell Immunoglobulin and Mucin Protein 3; HAVCR2
T2 sequence (looked up): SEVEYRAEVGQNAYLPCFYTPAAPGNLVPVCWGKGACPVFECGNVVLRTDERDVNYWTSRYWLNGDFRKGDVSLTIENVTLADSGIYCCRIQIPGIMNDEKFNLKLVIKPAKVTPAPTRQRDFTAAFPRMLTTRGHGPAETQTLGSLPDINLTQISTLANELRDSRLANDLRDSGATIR

B1: APE5121 (antibody, V domains shown)
VH: EVQVLESGGGLVQPGGSLRLYCVASGFTFSGSYAMSWVRQAPGKGLEWVSAISGSGGSTYYADSVKGRFTISRDNSKNTLYLQMNSLRAEDTAVYYCAKKYYVGPADYWGQGTLVTVSS
VL: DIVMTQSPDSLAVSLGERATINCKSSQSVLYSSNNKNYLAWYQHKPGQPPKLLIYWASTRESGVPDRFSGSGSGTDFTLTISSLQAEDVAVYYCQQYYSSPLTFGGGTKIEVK
notes: also called Back-Up Antibody
B2: APE5137 (antibody, V domains shown)
VH: EVQLLESGGGLVQPGGSLRLSCAAASGFTFSSYDMSWVRQAPGKGLDWVSTISGGGTYTYYQDSVKGRFTISRDNSKNTLYLQMNSLRAEDTAVYYCASMDYWGQGTTVTVSS
VL: DIQMTQSPSSLSASVGDRVTITCRASQSIRRYLNWYHQKPGKAPKLLIYGASTLQSGVPSRFSGSGSGTDFTLTISSLQPEDFAVYYCQQSHSAPLTFGGGTKVEIKR
notes: also called Lead Antibody; lead anti-TIM-3 antibody

Legend:
[1] = target: T1, Cyno TIM-3; experiment: BIACORE (SPR)
[2] = target: T2, Human TIM-3; experiment: BIACORE (SPR)

Row | Binder | Kd [1] [nM] | Kd [2] [nM]
1 | B1 | 1.5 | < 0.05
2 | B2 | 0.19 | 0.05
